The values below are quoted from earlier work in article PMC3930863.

pKd: −log10 of the molar value.

A word on the pKd: it is −log10 of the Kd, conventionally taken in molar units.

Series [1] has as its target InlC (Listeria monocytogenes) (UniProt P71451). The experiment in a line: isothermal titration calorimetry. On the technique in general: ITC needs no label: the signal is the heat of the interaction.
In a further series the target is N-WASP (Homo sapiens). The experiment in a line: isothermal titration calorimetry.

Chain of UniProt P71451 (P71451 35-297): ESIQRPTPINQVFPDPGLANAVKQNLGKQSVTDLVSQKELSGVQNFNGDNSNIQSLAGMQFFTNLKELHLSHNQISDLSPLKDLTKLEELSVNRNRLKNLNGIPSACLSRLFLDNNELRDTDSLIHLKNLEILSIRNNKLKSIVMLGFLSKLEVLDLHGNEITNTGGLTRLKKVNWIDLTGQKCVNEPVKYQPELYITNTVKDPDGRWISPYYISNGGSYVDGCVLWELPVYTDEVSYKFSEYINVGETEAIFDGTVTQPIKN

For the substance Tuba SH3-6 (from UniProt Q6XZF7), the pKd is 5.27 in series [1] and 4.33 in the series with N-WASP (Homo sapiens).
